# Data: article PMC4918322
# Target: PLK1 (UniProt P53350)
# Experiment: anti-V5 co-immunoprecipitation, PLK1 blot
# Settings: reference: wild-type RSF1-C1; sites S1375
substance,measurement,value
"RSF1 C1, 627-1441 (from UniProt Q96T23) S1375A",binding against the reference,lost
